Laboratory results from article PMC11214941.

Tests used:
[1] = ELISA of EREG in HEK293 conditioned medium; settings: glycan lost; control: EREG-WT
[2] = IF of GFP-EREG in HEK293, membrane localisation; settings: glycan lost; control: GFP-EREG-WT, untreated
[3] = CHX chase immunoblot, protein remaining; settings: glycan lost; control: untreated

Substance | expression_or_secretion [1] | localisation_or_trafficking [2] | degradation_or_half_life [3]
Epiregulin (EREG): N47Q | decreases | decreases | –
Epiregulin (EREG): tunicamycin | – | decreases | decreases
Epiregulin (EREG): NGI-1 | – | decreases | decreases
